Measurements from publication PMC6704107.

Legend:
[1] = target: Adeno-associated virus 5 (AAV5) particle, wild-type capsid (adeno-associated virus 5 (AAV5)) (UniProt Q9YIJ1); assay: SPR; Biacore T200; AAV1 or AAV5 particles immobilised on a CM5 chip by amide coupling; wt or mutated AAVR flowed over; 30 μl/min, 25 °C, PBS
[2] = target: recombinant AAV5 particles (AAV5 capsid) (adeno-associated virus 5) (UniProt Q9YIJ1); assay: SPR; Biacore T200; AAV1 or AAV5 particles immobilised on a CM5 chip by amide coupling (sodium acetate pH 4.5); wt or mutated AAVR flowed over at 30 ul/min, 25 C, PBS; triplicate experiments, mean with standard error
[3] = target: Adeno-associated virus 1 (AAV1) particle, wild-type capsid (adeno-associated virus 1 (AAV1)) (UniProt Q9WBP8)
[4] = target: recombinant AAV1 particles (AAV1 capsid) (adeno-associated virus 1) (UniProt Q9WBP8); assay: SPR; Biacore T200; AAV1 or AAV5 particles immobilised on a CM5 chip by amide coupling (sodium acetate pH 4.5); wt or mutated AAVR flowed over at 30 ul/min, 25 C, PBS; triplicate experiments, mean with standard error
[5] = target: Adeno-associated virus 1 (AAV1) particle, wild-type capsid (adeno-associated virus 1 (AAV1)) (UniProt Q9WBP8); assay: SPR; Biacore T200; AAV1 or AAV5 particles immobilised on a CM5 chip by amide coupling; wt or mutated AAVR flowed over; 30 μl/min, 25 °C, PBS
[6] = target: Adeno-associated virus receptor (AAVR), wild-type, PKD1-5 domains (UniProt Q8IZA0)
[7] = target: AAV2 capsid (Adeno-associated virus 2) (UniProt P03135); settings: cited from earlier work

Chain of AAVR (Q8IZA0 whole entry): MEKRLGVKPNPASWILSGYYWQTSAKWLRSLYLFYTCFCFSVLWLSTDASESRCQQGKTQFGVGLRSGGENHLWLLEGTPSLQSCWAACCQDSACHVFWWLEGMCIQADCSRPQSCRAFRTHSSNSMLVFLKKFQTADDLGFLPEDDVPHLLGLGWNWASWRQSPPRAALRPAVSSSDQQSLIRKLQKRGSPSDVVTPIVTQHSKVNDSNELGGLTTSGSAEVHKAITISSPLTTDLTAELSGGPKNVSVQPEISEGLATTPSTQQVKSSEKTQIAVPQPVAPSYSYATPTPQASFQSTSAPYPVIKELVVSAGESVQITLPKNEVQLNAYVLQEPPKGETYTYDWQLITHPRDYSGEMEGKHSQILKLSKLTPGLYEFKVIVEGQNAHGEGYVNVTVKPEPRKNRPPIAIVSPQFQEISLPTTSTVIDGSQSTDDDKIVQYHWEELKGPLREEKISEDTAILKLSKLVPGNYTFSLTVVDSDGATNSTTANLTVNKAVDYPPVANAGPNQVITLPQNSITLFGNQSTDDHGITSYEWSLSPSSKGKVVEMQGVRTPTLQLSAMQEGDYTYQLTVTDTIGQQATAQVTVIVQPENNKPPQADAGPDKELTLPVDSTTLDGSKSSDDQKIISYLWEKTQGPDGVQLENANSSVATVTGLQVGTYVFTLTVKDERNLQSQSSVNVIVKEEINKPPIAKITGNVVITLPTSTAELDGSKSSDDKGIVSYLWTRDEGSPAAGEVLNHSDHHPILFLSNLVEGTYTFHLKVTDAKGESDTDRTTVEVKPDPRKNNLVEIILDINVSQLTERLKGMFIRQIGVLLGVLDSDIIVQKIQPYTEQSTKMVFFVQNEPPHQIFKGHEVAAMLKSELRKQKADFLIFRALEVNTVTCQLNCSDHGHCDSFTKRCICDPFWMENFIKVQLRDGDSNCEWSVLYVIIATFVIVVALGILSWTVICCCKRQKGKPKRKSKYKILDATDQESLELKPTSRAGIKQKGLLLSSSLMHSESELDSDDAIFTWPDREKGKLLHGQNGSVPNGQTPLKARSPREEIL

Work on “AAVR PKD1-5 I349A (from UniProt Q8IZA0-1 1-1049) (receptor)” yielded a Kd [1] of 7 nM.
In the case of “AAVR PKD1-5 T434A (from UniProt Q8IZA0-1 1-1049) (domain or fragment)”, the Kd [2] is reported as 289 nM.
Work on “AAVR PKD1-5 T434A (from UniProt Q8IZA0-1 1-1049) (receptor)” yielded an AAV1-mCherry transduction of AAVR-silenced HEK293T cells expressing AAVR with this mutation (pcDNA3.1(+)-AAVR) (% of AAV1 infection) [3] of 70.
In the case of “AAVR PKD1-5 D436A (from UniProt Q8IZA0-1 1-1049) (domain or fragment)”, the Kd [2] is reported as 295 nM.
Work on “AAVR PKD1-5 I349A (from UniProt Q8IZA0-1 1-1049) (domain or fragment)” yielded a Kd [4] of 18.5 nM.
“AAVR PKD1-5 K438A (from UniProt Q8IZA0-1 1-1049) (domain or fragment)” showed a Kd [2] of 270 nM.
“AAVR PKD1-5 D429A (from UniProt Q8IZA0-1 1-1049) (domain or fragment)” showed a Kd [2] of 243 nM.
For “AAVR PKD1-5 S425A (from UniProt Q8IZA0-1 1-1049) (domain or fragment)”, the Kd [2] was 329 nM.
“AAVR PKD1-5 Y442A (from UniProt Q8IZA0-1 1-1049) (domain or fragment)” showed a Kd [2] of 269 nM.
For “AAVR PKD1-5 S433A (from UniProt Q8IZA0-1 1-1049) (domain or fragment)”, the Kd [2] was 284 nM.
Work on “AAVR PKD1-5 S356A (from UniProt Q8IZA0-1 1-1049) (receptor)” yielded a fold decrease of binding affinity against wt AAVR [1] of 100 fold.
Work on “AAVR PKD1-5 L376A (from UniProt Q8IZA0-1 1-1049) (domain or fragment)” yielded a Kd [4] of 16.7 nM.
With “AAVR PKD1-5 T397A (from UniProt Q8IZA0-1 1-1049) (receptor)” the fold decrease of binding affinity against wt AAVR [1] was 100 fold.
Substance “AAVR PKD1-5 D437A (from UniProt Q8IZA0-1 1-1049) (domain or fragment)” has a Kd [2] of 252 nM.
With “AAVR PKD1-5 K464A (from UniProt Q8IZA0-1 1-1049) (receptor)” the Kd [5] was 1.32 nM.
“AAVR PKD1-5 D354A (from UniProt Q8IZA0-1 1-1049) (receptor)” gave a fold decrease of binding affinity against wt AAVR [1] of 100 fold.
“AAVR PKD1-5 S431A (from UniProt Q8IZA0-1 1-1049) (domain or fragment)” showed a Kd [2] of 244 nM.
“AAVR PKD1-5 E378A (from UniProt Q8IZA0-1 1-1049) (domain or fragment)” showed a Kd [4] of 19.9 nM.
“AAVR PKD1-5 K399A (from UniProt Q8IZA0-1 1-1049) (receptor)” showed a Kd [1] of 71900 nM.
Substance “AAVR PKD1-5 T350A (from UniProt Q8IZA0-1 1-1049) (domain or fragment)” has a Kd [4] of 14.2 nM.
Work on “AAVR PKD1-5 D435A (from UniProt Q8IZA0-1 1-1049) (domain or fragment)” yielded a Kd [2] of 234 nM.
For “AAVR PKD1-5 D435A (from UniProt Q8IZA0-1 1-1049) (receptor)”, the AAV1-mCherry transduction of AAVR-silenced HEK293T cells expressing AAVR with this mutation (pcDNA3.1(+)-AAVR) (% of AAV1 infection) [3] was 70.
In the case of “wild-type AAVR PKD1-5 domains with a C-terminal His-tag (from UniProt Q8IZA0-1 1-1049) (domain or fragment)”, the Kd [4] is reported as 16.2 nM.
“AAVR PKD1-5 T426A (from UniProt Q8IZA0-1 1-1049) (domain or fragment)” showed a Kd [2] of 311 nM.
“AAVR PKD1-5 K464A (from UniProt Q8IZA0-1 1-1049) (domain or fragment)” showed a Kd [2] of 265 nM.
With “AAV5 particle with capsid mutation Y542A (from UniProt Q9YIJ1 1-724) (complex)” the transduction of HEK293T cells (endogenous AAVR) by the mutated AAV5-GFP, functional titer against wt AAV5 [6] was 15 % of wt AAV5.
For AAVR (from UniProt Q8IZA0), the Kd [7] is listed as 57 nM.
“AAVR PKD1-5 S356A (from UniProt Q8IZA0-1 1-1049) (domain or fragment)” showed a Kd [4] of 12.2 nM.
Substance “AAVR PKD1-5 T397A (from UniProt Q8IZA0-1 1-1049) (domain or fragment)” has a Kd [4] of 17.7 nM.
In the case of “AAVR PKD1-5 D354A (from UniProt Q8IZA0-1 1-1049) (domain or fragment)”, the Kd [4] is reported as 17.4 nM.
Work on “AAVR PKD1-5 R353A (from UniProt Q8IZA0-1 1-1049) (domain or fragment)” yielded a Kd [4] of 20.5 nM.
“Adeno-associated virus receptor (AAVR), wild-type, PKD1-5 domains (from UniProt Q8IZA0-1 1-1049)” showed a Kd [1] of 287 nM and a Kd [5] of 13.9 nM.
Work on “AAVR PKD1-5 K399A (from UniProt Q8IZA0-1 1-1049) (domain or fragment)” yielded a Kd [4] of 17.5 nM.
In the case of “AAV5 particle with capsid mutation Q532A (from UniProt Q9YIJ1 1-724) (complex)”, the transduction of HEK293T cells (endogenous AAVR) by the mutated AAV5-GFP, functional titer against wt AAV5 [6] is reported as 50 % of wt AAV5.
For “AAVR PKD1-5 V427A (from UniProt Q8IZA0-1 1-1049) (domain or fragment)”, the Kd [2] was 306 nM.
With “AAV5 particle with capsid mutation E708A (from UniProt Q9YIJ1 1-724) (complex)” the transduction of HEK293T cells (endogenous AAVR) by the mutated AAV5-GFP, functional titer against wt AAV5 [6] was 50 % of wt AAV5.
